Experimental data as given in PMC5502268, “DNA Methylation Influences Chlorogenic Acid Biosynthesis in Lonicera japonica by Mediating LjbZIP8 to Regulate Phenylalanine Ammonia-Lyase 2 Expression”.

Key:
[1] = molecular target: T1, LjbZIP8 (Lonicera japonica, UniProt A0A4Y1JSE6 1-144); assay: EMSA; inhibited by unlabelled probe (200x in legend; 4 pmol vs 40 fmol in Methods); 40 fmol biotin probe, 15 fmol protein, 0 or 4 pmol competitor, room temperature 20 min, Pierce LightShift kit 20148; binding buffer, salt and pH not stated; conditions: protein: recombinant; tags: GST (pGEX-4T-1); chain copies: 2; blunt
T1 sequence: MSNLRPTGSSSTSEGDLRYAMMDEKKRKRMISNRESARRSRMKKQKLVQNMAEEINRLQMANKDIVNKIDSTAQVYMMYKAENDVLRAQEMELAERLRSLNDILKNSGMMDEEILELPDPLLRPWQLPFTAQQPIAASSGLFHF

[2] = molecular target: T2, LjbZIP10 (Lonicera japonica, UniProt A0A4Y1JSG2 1-361); assay: EMSA; 40 fmol biotin probe, 15 fmol protein, 0 or 4 pmol competitor, room temperature 20 min, Pierce LightShift kit 20148; binding buffer, salt and pH not stated; conditions: protein: recombinant; tags: GST (pGEX-4T-1); chain copies: 2; blunt
T2 sequence: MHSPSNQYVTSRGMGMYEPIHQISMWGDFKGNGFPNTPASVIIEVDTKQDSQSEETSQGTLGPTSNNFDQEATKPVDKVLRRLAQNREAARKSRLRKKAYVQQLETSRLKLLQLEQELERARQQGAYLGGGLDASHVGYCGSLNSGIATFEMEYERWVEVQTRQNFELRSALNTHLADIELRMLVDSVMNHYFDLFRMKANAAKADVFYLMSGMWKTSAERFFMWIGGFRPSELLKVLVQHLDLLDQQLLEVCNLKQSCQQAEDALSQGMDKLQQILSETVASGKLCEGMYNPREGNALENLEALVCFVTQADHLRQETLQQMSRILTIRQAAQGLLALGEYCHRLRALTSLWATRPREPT

B1: LjPAL2 G-box probe (dsDNA)
DNA 1: CTCTCCTGTCCACGTGTCATCAAC
DNA 2: GTTGATGACACGTGGACAGGAGAG
- binding result [1]: binds
- binding result [2]: no binding
